According to US20240400698A1, “ANTI-CHEMOKIN LIKE RECEPTOR 1 ANTIBODIES AND THEIR THERAPEUTIC APPLICATIONS” (OSE IMMUNOTHERAPEUTICS, priority 2018, published 2024):

Tests used:
[1] = tested on: Mice dendritic cells; assay: Maturation and differentiation of mice bone marrow derived dendritic cells, activation markers and viability by FACS; assay type: cell-based
Procedure: FIG. 1. Effect of the anti-CMKLR1 variants 1G1, 2G1, 3G1 and 4G1 chimeric antibodies on the DCs maturation and differentiation. Mice dendritic cells were incubated during maturation phase (24 h or 48 h) followed by a differentiation phase with excipient or RvE1 or anti-CMKLR1 antibodies variants (mutations on positions 1 and 2 of SEQ ID No. 8, corresponding to the VH-CDR3: 1G1 (LL), 2G1 (LI), 3G1 (IL) or 4G1 (II) or isotype controls (hIgG1 or mIgG)). Cells were then stained for FACS analysis with cell marker antibodies: A. CD80-PE; B. CD86-FITC; C. CD103-PerCPCy5.5; D. I/Ab-APC. Mean of Fluorescence was determined in each condition. E and F represent the viability of the cells measured by FACS using LIVE/DEAD® kit from Life Technologies in each condition after 24 or 48 hours of maturation respectively.
FIG. 17. Study of the myeloid cell activation markers after CMKLR1 pathway activation. Dendritic cells incubated in excipient, RvE1, 2G1 or isotype control (hIgG1) were then stained for FACS analysis with marker antibodies: A. CD80-PE. B. CD86-FITC. C. CD103-PerCPCy5.5. D. CD40-PeCy7. E. I/Ab-APC. Mean of Fluorescence was determined in each condition.
Bone marrow cells were harvested and cultured in RPMI medium supplemented with 10% FBS, glutamine and antibiotics and the dendritic cell differentiation was induced by GM-CSF at 20 ng/ml for 7 days. Then, immature dendritic cells (iDC) were collected and cultured for 24 hours with LPS (100 ng/ml) to induce the maturation from iDC to mDC. Treatments were added during differentiation and maturation at 2 μg/ml.
Dendritic cells were resuspended in PBS-FBS-EDTA and incubated with live and dead (LIVE/DEAD® Fixable Dead Cell Stains Yellow-Life Technologies) for 30 minutes on ice. Staining of CD11c-BV711, CD11b-APCCy7, I/Ab-APC, CD103-PerCPCy5.5, CCR7-V450, CD40-PeCy7, CD80-PE, CD86-FITC (all provided by BD Pharmingen) were performed.

[2] = tested on: C57BI/6 male mice, colitis induced by DSS; assay: Acute inflammatory colitis model induced by DSS; assay type: in vivo
Procedure: FIG. 2. […] Mice were injected after 6 days of DSS induction with isotype control hIgG1 (10 μg per mouse) (x), RvE1 (1 μg per mouse) daily (•), or 2G1 antibody (10 μg per mouse) three times ( ) for 5 days. Wild type mice, not treated, are represented by an ▾. A. Animal weight loss. B. Animal stool score C. Colon length. D. Resolution index.
Colitis was induced in 8-10 weeks-old-C57BI/6 male mice by adding 2% (wt/vol) of DSS to the sterile drinking ad libitum water for 6 days. Treatments were injected intra-peritoneally: Isotype control hIgG1 (10 μg per mouse), RvE1 (1 μg per mouse) daily, or 2G1 antibody (10 μg per mouse) three times for 5 days. Colitis follow-up consisting of body weight and stool score (0: normal stool; 4: blood in stool) parameters were performed daily. When mice were euthanized, colon length representing the pathology severity was measured. Resolution index was determined in the different conditions as described in Bannenberg et al., 2005.

[3] = tested on: NOD female mice, spontaneous type 1 diabetes; assay: Type 1 diabetes NOD model; assay type: in vivo; settings: 20 μg/injection i.p. three times a week for 2 weeks
Text: FIG. 5. […] Mice develop spontaneous diabetes. […] A. Percentage of survival, B. individual representation of blood glucose concentration in mg/dL. C. pooled representation of blood glucose concentration in mg/dL.
8 weeks-old NOD female mice were obtained from Charles River laboratory. These mice develop a spontaneous type 1 diabetes at age between 12 to 20 weeks. The diabetes initiation can be measured by the high glycaemia.

[4] = tested on: mice M1 or M2 macrophages; assay: Cytokine secretion by mice M1 or M2 macrophages (ELISA), FIG. 15; assay type: cell-based; settings: ELISA
Procedure: FIG. 15. Study of the inflammatory cytokine secretion by human macrophages during CMKLR1 activation. After differentiation of human macrophages M1 or M2, cells were incubated in presence of medium, isotype control, anti-CMKLR1 antibodies (H6 and BZ194), C15 peptides, 2G1 anti-CMKLR1 antibody or RvE1. Secretion of IL10, CCL17 and IL12p40 were assessed by ELISA. Cytokines secretion is measured in the supernatant by using an ELISA kit from BD. Supernatant were diluted at 1/10 for IL10 cytokines, 1/50 for CCL17 cytokines and 1/100 for IL12p40 cytokines. A. IL10 cytokine secretion by M2 cells. B. CCL17 cytokine secretion by M2 cells. C. represents IL 12 cytokine secretion by M1 cells.
Bone marrow cells were harvested and cultured in the RPMI medium supplemented with 10% FBS, glutamine and antibiotics containing macrophages colony-stimulating factor (M-CSF) at 100 ng/ml for 5 days inducing the macrophages differentiation. The macrophages were harvested and cultured for 2 days with either IFNg (20 ng/ml) and LPS (100 ng/ml) inducing the M1 polarization or with IL-4 (20 ng/ml) inducing the M2 polarization. Treatments were added during macrophage polarization at 2 μg/ml.
After differentiation of mice M1 or M2 as explain above, cells were incubated in presence of medium, isotype control, anti-CMKLR1 antibodies: clones H6 and BZ194, C15 peptides, 2G1 the anti-CMKLR1 antibody of interest or RvE1 were used. Then the secretion of IL10, CCL17 and IL12p40 was assessed by ELISA. Cytokines secretion was measured in the supernatant using an ELISA kit from BD. Supernatants were diluted at 1/10 for IL10 cytokines, 1/50 for CCL17 cytokines and 1/100 for IL12p40 cytokines.
Cytokines secretion was detected by ELISA according to the BD manufacturer instructions. Briefly, supernatants were diluted in the appropriate buffer and incubated for 2 hours after overnight coating with capture antibody and saturation. […] TMB supplied by BD Bioscience was used as substrate and colorimetric reaction was read with TECAN.

B1: 2G1: chimeric anti-CMKLR1 antibody, murine variable regions (SEQ ID No: 10 and 17), human IgG1 constant regions; VH-CDR3 variant LI (antibody, V domains shown)
VH: METDTLLLWVLLLWVPGSTGDEVQLVASGGGLVQPGGSLKLSCAASGFTFSSYGMSWVRQTPDRRLELVATINRYGGSTYYPDSVKGRFTISRDNAKNTLYLQMSSLKSEDTAMYYCPRLIYYGNEGDSWGQGTTLTVSS
VL: METDTLLLWVLLLWVPGSTGDQIVLTQSPAIMSASPGEKVTMTCSASSSVSFMHWYQQKSGTSPKRWIYDTTKLTSGVPARFSGSGSGTFYSLTISSMEAEDAATYYCQQWNSKPPLTFGPGTKLELKR
modifications: human IgG1 constant regions
notes: VH-CDR3 variant LI
level of detection of DCs expressing CD103 and IAb ([1]; FIG. 1, FACS, compared with C7 antibody): lower than DCs cells treated with C7 antibody
DCs activation and/or maturation towards a pro-inflammatory pathway ([1]; FIG. 1, mice dendritic cells, maturation 24 h or 48 h): inhibit DCs activation and/or maturation in a stronger manner than other synthetized antibodies (3G1 and 4G1)
expression of CD80, CD86, CD103, CD40 and IAb (DC activation markers) ([1]; FIG. 17, FACS, compared to the excipient or isotype control): strong decrease
viability of cells ([1]; FIGS. 1E and 1F, LIVE/DEAD kit, after 24 or 48 hours of maturation, compared with other antibodies, C7 or Resolvin E1): enhanced
overall state of the animals ([2]; 10 μg per mouse i.p. three times, vs control antibody or RvE1): better overall state
weight loss ([2]; FIG. 2A, 10 μg per mouse i.p.): lost significantly less weight
score stool ([2]; FIG. 2B, 10 μg per mouse i.p.): significantly better
survival percentage ([3]; FIG. 5A): better survival percentage
glycaemia (blood glucose concentration) ([3]; FIG. 5B-C): almost normal glycaemia
IL10 secretion by M2 type macrophages ([4]; FIG. 15A): induced
CCL17 secretion by M2 type macrophages ([4]; FIG. 15B): induced
pro-inflammatory cytokines (IL12) from M1 type macrophages ([4]; FIG. 15C): decreased
